In patent US20180327500A1 (SYMPHOGEN A S, published 2018):

Legend:
Assay in all cases: flow cytometry on transfected HEK293 cells;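 also: antibodies applied at 50 µg/ml, binding called specific when fluorescence exceeds the mean signal on a negative control chicken or mouse MET construct plus four SD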
Mouse Blade 1-7 = target: T1, Mouse Blade 1-7
T1 construct: human/mouse chimera on transfected HEK293 cells; also called AA 25-513
Procedure: (§1) Cut-off values defined as the average fluorescence signal of all antibodies tested at 50 μg/ml to the negative control chicken or mouse MET construct+four standard deviations were employed to discriminate background binding from specific binding for the domain exchange or blade exchange constructs.
T1 MET ECD-SV5-GPI fusion: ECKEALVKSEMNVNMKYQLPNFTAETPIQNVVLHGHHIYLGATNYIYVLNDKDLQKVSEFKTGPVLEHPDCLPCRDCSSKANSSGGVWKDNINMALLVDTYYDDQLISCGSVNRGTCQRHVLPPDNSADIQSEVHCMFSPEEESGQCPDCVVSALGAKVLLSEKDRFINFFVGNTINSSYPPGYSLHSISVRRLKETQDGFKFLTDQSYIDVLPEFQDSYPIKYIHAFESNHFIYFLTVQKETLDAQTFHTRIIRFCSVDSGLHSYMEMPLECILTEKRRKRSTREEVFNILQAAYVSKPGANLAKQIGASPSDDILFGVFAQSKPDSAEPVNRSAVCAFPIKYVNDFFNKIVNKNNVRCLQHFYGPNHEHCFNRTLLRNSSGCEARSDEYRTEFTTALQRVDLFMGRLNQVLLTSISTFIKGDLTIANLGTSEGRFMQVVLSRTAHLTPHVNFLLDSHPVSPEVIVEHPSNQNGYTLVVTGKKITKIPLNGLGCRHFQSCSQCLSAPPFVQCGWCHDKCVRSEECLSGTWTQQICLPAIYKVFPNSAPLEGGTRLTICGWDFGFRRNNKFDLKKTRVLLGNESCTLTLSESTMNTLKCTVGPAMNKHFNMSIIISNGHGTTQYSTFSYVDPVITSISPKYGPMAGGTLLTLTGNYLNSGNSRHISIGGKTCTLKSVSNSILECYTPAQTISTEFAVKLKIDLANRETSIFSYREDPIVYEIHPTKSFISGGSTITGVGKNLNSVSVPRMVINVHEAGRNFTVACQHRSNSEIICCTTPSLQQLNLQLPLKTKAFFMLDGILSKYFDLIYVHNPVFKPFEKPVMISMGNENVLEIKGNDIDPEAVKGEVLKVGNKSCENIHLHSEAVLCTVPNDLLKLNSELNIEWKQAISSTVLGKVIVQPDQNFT

LS2 = target: T2, LS2
T2 construct: human/mouse chimera on transfected HEK293 cells
Procedure: as §1
T2 MET ECD-SV5-GPI fusion: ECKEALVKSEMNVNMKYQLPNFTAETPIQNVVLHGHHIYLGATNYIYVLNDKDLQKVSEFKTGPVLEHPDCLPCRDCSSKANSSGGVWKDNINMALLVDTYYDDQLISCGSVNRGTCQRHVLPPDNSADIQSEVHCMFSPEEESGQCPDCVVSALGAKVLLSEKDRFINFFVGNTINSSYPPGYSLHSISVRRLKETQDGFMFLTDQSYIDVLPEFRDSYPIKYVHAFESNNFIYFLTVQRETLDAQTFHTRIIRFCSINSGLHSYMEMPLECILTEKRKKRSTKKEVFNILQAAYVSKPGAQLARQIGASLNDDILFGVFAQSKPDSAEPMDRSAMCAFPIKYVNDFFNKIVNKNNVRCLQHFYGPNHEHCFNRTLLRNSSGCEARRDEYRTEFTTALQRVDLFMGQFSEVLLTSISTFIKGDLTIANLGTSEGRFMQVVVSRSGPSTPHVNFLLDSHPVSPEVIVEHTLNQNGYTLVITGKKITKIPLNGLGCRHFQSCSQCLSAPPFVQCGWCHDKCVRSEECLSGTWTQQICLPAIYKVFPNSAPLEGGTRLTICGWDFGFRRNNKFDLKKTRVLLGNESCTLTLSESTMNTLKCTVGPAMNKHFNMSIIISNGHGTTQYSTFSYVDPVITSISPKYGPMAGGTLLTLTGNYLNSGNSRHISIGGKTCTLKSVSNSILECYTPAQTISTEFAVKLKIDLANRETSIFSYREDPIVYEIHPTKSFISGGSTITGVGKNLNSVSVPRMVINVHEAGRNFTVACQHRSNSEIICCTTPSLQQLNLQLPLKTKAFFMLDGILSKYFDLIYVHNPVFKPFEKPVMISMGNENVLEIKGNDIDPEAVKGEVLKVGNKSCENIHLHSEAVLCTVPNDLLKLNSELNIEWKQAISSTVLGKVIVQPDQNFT

LS5 = target: T3, LS5
T3 construct: human/mouse chimera on transfected HEK293 cells; also called AA 25-473
Procedure: as §1
T3 MET ECD-SV5-GPI fusion: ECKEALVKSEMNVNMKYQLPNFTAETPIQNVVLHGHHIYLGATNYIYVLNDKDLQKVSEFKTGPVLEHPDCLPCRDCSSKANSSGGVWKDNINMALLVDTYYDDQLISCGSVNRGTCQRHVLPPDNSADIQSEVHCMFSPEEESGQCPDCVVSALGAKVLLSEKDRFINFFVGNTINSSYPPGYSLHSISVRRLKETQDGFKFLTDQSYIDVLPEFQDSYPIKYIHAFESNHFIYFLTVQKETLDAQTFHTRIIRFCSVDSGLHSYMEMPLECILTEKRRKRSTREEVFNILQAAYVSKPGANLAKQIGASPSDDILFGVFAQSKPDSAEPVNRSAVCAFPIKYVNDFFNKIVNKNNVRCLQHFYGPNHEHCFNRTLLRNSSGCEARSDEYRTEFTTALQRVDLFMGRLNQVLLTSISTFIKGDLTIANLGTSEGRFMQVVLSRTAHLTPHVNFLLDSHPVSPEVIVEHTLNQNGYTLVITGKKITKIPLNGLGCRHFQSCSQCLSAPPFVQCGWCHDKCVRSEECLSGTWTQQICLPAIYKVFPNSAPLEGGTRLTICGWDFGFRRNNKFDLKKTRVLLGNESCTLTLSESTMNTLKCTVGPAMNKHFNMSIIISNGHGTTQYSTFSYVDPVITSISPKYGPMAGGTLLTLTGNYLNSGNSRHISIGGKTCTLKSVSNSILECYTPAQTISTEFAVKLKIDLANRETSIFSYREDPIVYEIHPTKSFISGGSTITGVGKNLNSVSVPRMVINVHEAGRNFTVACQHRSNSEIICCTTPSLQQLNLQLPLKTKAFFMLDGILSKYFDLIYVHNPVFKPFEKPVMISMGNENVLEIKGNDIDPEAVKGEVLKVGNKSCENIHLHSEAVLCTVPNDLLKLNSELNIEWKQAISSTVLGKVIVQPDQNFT

Mouse Blade 1-6 = target: T4, Mouse Blade 1-6
T4 construct: human/mouse chimera on transfected HEK293 cells; also called AA 25-479
Procedure: as §1
T4 MET ECD-SV5-GPI fusion: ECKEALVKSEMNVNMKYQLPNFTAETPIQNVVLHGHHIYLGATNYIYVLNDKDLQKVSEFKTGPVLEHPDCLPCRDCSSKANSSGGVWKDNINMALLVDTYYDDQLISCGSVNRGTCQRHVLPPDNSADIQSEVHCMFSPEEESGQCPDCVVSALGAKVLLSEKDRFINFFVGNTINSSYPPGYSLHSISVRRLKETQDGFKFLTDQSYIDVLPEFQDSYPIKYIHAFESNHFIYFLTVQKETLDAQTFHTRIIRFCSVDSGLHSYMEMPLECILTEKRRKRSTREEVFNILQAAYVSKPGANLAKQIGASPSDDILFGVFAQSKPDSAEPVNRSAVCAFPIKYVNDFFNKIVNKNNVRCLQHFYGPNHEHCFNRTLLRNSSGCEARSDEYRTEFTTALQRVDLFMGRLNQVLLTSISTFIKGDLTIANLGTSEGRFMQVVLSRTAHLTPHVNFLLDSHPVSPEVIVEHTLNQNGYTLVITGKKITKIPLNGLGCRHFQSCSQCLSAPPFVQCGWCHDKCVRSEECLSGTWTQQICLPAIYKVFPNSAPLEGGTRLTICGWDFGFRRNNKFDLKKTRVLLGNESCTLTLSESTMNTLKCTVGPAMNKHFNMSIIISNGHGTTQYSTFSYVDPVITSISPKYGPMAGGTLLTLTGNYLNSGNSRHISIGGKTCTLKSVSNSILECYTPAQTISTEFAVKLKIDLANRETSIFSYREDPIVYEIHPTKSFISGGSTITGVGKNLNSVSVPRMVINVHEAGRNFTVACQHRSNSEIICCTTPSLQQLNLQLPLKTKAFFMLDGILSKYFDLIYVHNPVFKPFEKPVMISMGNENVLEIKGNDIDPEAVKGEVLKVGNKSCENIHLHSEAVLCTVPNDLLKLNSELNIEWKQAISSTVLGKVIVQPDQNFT

Measured: binding result

B1: humanized antibody 9006 (antibody, human IgG1, kappa, V domains shown)
VH: QVQLVQSGSELKKPGASVKVSCKASGYTFTNFRMNWVKQAPGQGLKWMGWINTYTGEPTYVDDLKGRFVFSLDTSVSTAYLQISSLKAEDTAVYYCARKGIARAMDYWGQGTTVTVSS
VL: DIVMTQSPDSLAVSLGERATINCKSSQSLLDSGNQKNYLAWYQQKPGQPPKLLIFGASTRESGVPDRFSGSGSGTDFTLTISSLQAEDVAVYYCQNDHSYPYTFGQGTKLEIKR
notes: also called Hu9006; hu9006
no binding (tested: 50 µg/ml): Mouse Blade 1-7 | LS2 | LS5 | Mouse Blade 1-6

B2: humanized antibody 9338 (antibody, human IgG1, kappa, V domains shown)
VH: QVQLVQSGAEVKKPGSSVKVSCKASGYTFTSYWMHWVRQAPGQGLEWMGYINPSSGHIENNQKFKDRVTITADKSTSTAYMELSSLRSEDTAVYYCARGRFAYWGQGTLVTVSS
VL: EIVLTQSPATLSLSPGERATLSCSASSSVSSGYLYWYQQKPGQAPRLLIYSTSNLASGIPARFSGSGSGTDFTLTISSLEPEDFAVYYCHQWSSYPFTFGSGTKLEIKR
notes: also called Hu9338; hu9338
no binding (tested: 50 µg/ml): Mouse Blade 1-7 | LS2 | LS5 | Mouse Blade 1-6
